Assay results: patent publication US20170349886A1 (VEGENICS, published 2017)
Where two headings read alike, the source gives them in different places.

B1: VGX-300 (Fc fusion)
chain: YSMTPPTLNITEESHVIDTGDSLSISCRGQHPLEWAWPGAQEAPATGDKDSEDTGVVRDCEGTDARPYCKVLLLHEVHANDTGSYVCYYKYIKARIEGTTAASSYVFVRDFEQPFINKPDTLLVNRKDAMWVPCLVSIPGLNVTLRSQSSVLWPDGQEVVWDDRRGMLVSTPLLHDALYLQCETTWGDQDFLSNPFLVHITGNELYDIQLLPRKSLELLVGEKLVLNCTVWAEFNSGVTFDWDYPGKQAERGKWVPERRSQQTHTELSSILTIHNVSQHDLGSYVCKANNGIQRFRESTEVIVHE
notes: only Ig-like domains I-III were in the molecule; Produced by transient expression in CHO or HEK cells; also called Parent; VGX-300 parent; not shown: Fc region gamma chain (detected with anti-human IgG)
B2: Human VEGF-C (ligand, UniProt P49767 103-227, looked up)
chain: TEETIKFAAAHYNTEILKSIDNEWRKTQCMPREVCIDVGKEFGVATNTFFKPPCVSVYRCGGCCNSEGLQCMNTSTSYLSKTLFEITVPLSQGPKPVTISFANHTSCRCMSKLDVYRQVHSIIRR
notes: also called VEGF-C ligand
B3: VGX-301-ΔN2 (Fc fusion)
chain: YSMTPPTLNITEESHVIDTGDSLSISCRGQHPLEWAWPGAQEAPATGDKDSEDTGVVRDCEGTDARPYCKVLLLHEVHAQDTGSYVCYYKYIKARIEGTTAASSYVFVRDFEQPFINKPDTLLVNRKDAMWVPCLVSIPGLNVTLRSQSSVLWPDGQEVVWDDRRGMLVSTPLLHDALYLQCETTWGDQDFLSNPFLVHITGNELYDIQLLPRKSLELLVGEKLVLNCTVWAEFNSGVTFDWDYPGKQAERGKWVPERRSQQTHTELSSILTIHNVSQHDLGSYVCKANNGIQRFRESTEVIVHE
notes: also called N2 mutant; not shown: Fc region gamma chain as in VGX-300
B4: Human VEGF-D (ligand, UniProt O43915 93-201, looked up)
chain: FYDIETLKVIDEEWQRTQCSPRETCVEVASELGKSTNTFFKPPCVNVFRCGGCCNEESLICMNTSTSYISKQLFEISVPLTSVPELVPVKVANHTGCKCLPTAPRHPYS
notes: also called VEGF-D ligand

How the values were obtained:
[1] = biological target: B2; test: cell-based or functional assay
[2] = biological target: B4; test: cell-based or functional assay
[3] = biological target: B2; test: cell-based or functional assay; remark: listed apart in the source
[4] = biological target: B4; test: cell-based or functional assay; remark: listed apart in the source
[5] = biological target: B2; test: cell-based or functional assay; remark: listed apart in the source
[6] = biological target: B4; test: cell-based or functional assay; remark: listed apart in the source
[7] = biological target: B2; test: ELISA on plate-coated VEGF-C (2 µg/mL), anti-human IgG-HRP detection; sigmoidal fit of the curve of FIG. 2A
[8] = biological target: B4; test: ELISA on plate-coated VEGF-D (2 µg/mL), anti-human IgG-HRP detection; sigmoidal fit of the curve of FIG. 2A
[9] = biological target: B1; test: SPR, ProteOn XPR36; trap captured on protein G' on a GLM chip, ligand as analyte
Text: (§1) The results of the affinity experiment are provided below in Table 5.

[10] = biological target: B3; test: as above
Text: as §1

Row | IC50 (read off the curve); VEGF-C-driven proliferation (WST-1) of Ba/F3 cells with the VEGFR-2 ECD/EpoR chimeric receptor [1] | IC50 (read off the curve); VEGF-D-driven proliferation (WST-1) of Ba/F3 cells with the VEGFR-2 ECD/EpoR chimeric receptor [2] | IC50 (read off the curve); VEGF-C-driven proliferation (WST-1) of Ba/F3 cells with the VEGFR-3 ECD/EpoR chimeric receptor [3] | IC50 (read off the curve); VEGF-D-driven proliferation (WST-1) of Ba/F3 cells with the VEGFR-3 ECD/EpoR chimeric receptor [4] | IC50 (read off the curve); VEGF-C-driven proliferation (WST-1) of Ba/F3 cells with the VEGFR-3 ECD/EpoR chimeric receptor [5] | IC50 (read off the curve); VEGF-D-driven proliferation (WST-1) of Ba/F3 cells with the VEGFR-3 ECD/EpoR chimeric receptor [6] | EC50 [7] | EC50 [8] | Kd [9] | koff [9] | kon [9] | Kd [10] | koff [10] | kon [10] | Binder
1 | ~0.02 mg/L | ~3 mg/L | ~0.01 mg/L | ~0.4 mg/L | ~0.007 mg/L | ~0.5 mg/L | 0.058 mg/L | 0.504 mg/L | – | – | – | – | – | – | B1
2 | – | – | – | – | – | – | – | – | 0.0051 nM | 1.11e-05 s⁻¹ | 2.18e+06 M⁻¹ s⁻¹ | 0.0037 nM | 1.03e-05 s⁻¹ | 2.79e+06 M⁻¹ s⁻¹ | B2
3 | – | – | – | – | ~0.005 mg/L | ~0.3 mg/L | 0.0295 mg/L | 0.105 mg/L | – | – | – | – | – | – | B3
4 | – | – | – | – | – | – | – | – | 0.625 nM | – | – | 0.677 nM | – | – | B4
